Assay results as given in US20150351390A1, “COMPOSITIONS AND METHODS FOR AUXIN-ANALOG CONJUGATION” (PIONEER HI-BRED INTERNATIONAL, INC., priority 2012, published 2015).

Legend:
[1] = LC-MS assay of GH3 conjugation of IAA with Asp or Glu; type: biochemical; details: for kcat (hrs−1) IAA-Asp: conjugation of IAA with Asp by recombinant GH3 protein, IAA-Asp product by LC-MS; for kcat (hrs−1) IAA-Glu: conjugation of IAA with Glu by recombinant GH3 protein, IAA-Glu product by LC-MS
How it was run: (§1)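 Kinetic parameters come from Michaelis-Menten fits of initial velocities. Velocities reflect LC-MS quantification, against standards, of Asp or Glu conjugates formed by purified GH3 (44 to 164 μg/mL) with 5 mM ATP and MgCl2 at pH 8.0, 30° C.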

[2] = LC-MS assay of GH3 conjugation of 2,4-D with Asp or Glu; type: biochemical; details: for kcat (hrs−1) 2,4-D-Asp: conjugation of 2,4-D with Asp by recombinant GH3 protein, 2,4-D-Asp product by LC-MS; for kcat (hrs−1) 2,4-D-Asp / kcat (hrs−1) 2,4-D-Glu: 5 mM 2,4-D substrate; for kcat (hrs−1) 2,4-D-Glu: conjugation of 2,4-D with Glu by recombinant GH3 protein, 2,4-D-Glu product by LC-MS
How it was run: as §1

| Molecule | kcat (hrs−1) IAA-Asp [1] [h⁻¹] | kcat (hrs−1) IAA-Glu [1] [h⁻¹] | kcat (hrs−1) 2,4-D-Asp [2] [h⁻¹] | kcat (hrs−1) 2,4-D-Glu [2] [h⁻¹] | IAA conjugation activity with Asp or Glu ([1]; result in words) | 2,4-D conjugation activity with Asp or Glu ([2]; result in words) |
| --- | --- | --- | --- | --- | --- | --- |
| SbEES08587: GH3 protein, accession EES08587 (protein, Sorghum bicolor) MSTSPAVLDHDHGHHRLLSSVSPPTTTTDSPATAMPPRAPSSLPPTIPACDPHDGPASLQLIEDLTTHAGAIQQRVLREILAMNAGTDYLRGFLGAGAEGRDADELAATFKDRVPVVEYEDVKPYIERIANGAPSSLISSKTITELLTSSGTSGGQPKLMPSTEEELDRKTFLYNLLVPVMNKYVEGLDKGRCMYLLFVKPEITTASGLVARPVLTSYYKSRHFRERPDSPYTRYTSPNEAILCPDSAQSMYAQLLCGLARRGEVLRVGAVFASAFLRAVKFLEAHWRALCDDIRAGRVDASRVTDAACRDAVARVVARPDPALADAIAAECEGSSSSSWRGIVRRLWPRTKYIDVIVTGSMAQYIPLLEFYGGGLPLVSTMYASSECYFGINLRPLDPPEDVAYTLLPNMCYYEFIKVEKDGEEAREDGKVVDLVDVEAGGYYELLVTTFTGLYRYRVGDILQVSGFHNAAPQFRFVHRRNVVLSVDTDKTSEDDLLRAVTAAKRLLAPLGGATILSEYTAYADTASIPGHYVLFWELTPTPPMPGDGDTAARVMAACCAEVEAGLDAVYQRCRSRDRSVGPLEIRVVSTGAFDALMDLCVSHGSSVNQYKTPRCIKHPDAIAVLEARVVGRFFSDTVPHWEPFNVVDTAAAGAAATTTPSLNEGAT | 10.251 | 389.161 | 0.044 | 0.554 |  |  |
| PtGH3-9: GH3 protein, accession EEE81977 (protein, listed as Populus trichocarpa) MDGKKLEYKGWVALKEIERLTEKADEVQETILKAILMQNGETEYLSKYMKGSKDVDEFKFHVPVITYKDVCPYIQRIATGEDSSLVTGHPVTEMLCSSGTSAGEPKLMPSIAEDLDRRTFVYNLIMPIMNQYIFGLDEGKAMFLYFIKAEMSTPCGLPARTVLTSYYKSKHFKCRTRDAFNDFTSPDQAILCKDSNQSMYCQLLSGLVHRHQVLRLGAVFASAFLRAISFLERNWGRLCNDIRSGDLDPTITDPECRSCMSMLLTSPNPSLADEIEDICSNTSWKGILCHLWPRAKYIEAVVTGSMAQYIPSLEYYSEGKLPLVCTMYASSECYFGVNLKPLCDPADVAFTLLPNMCYFEFIHLGENGTWLVNKDEEGEVPNDKLVNLVNVRLGSYYELVVTTFAGLYRYRIGDVLRVTGFHNKAPQFQFICRRNVVLSIDNDKTNEEDLHKSITAAKKLLEPYDALLVEYTSYADTSSVPGHYVLYWEILHDASFPDSSAQLDVKLLQECCISVEEELDYVYRRCRAHDKSVGPLEIRVVESGTFEALMDFFIGQGASINQYKTPRSIKSNAALKLLNSHVKASAFSPRDPAWIP | 4.487 | 21.980 | 0.065 | 0.305 |  |  |
| VvGH3-6: GH3 protein, accession XP_002268278 (protein, listed as Vitis vinifera) MLLSCDPHDNEAGLMLLEDLTTNANQVQLEVLEEILTQNANTEYLRGYLDGHSDKGLFKKKVPIVNYEDIKPHIERIANGEPSRIISAQPITELLTSSGTSGGQPKLMPSTAEDLDRKTFFYNLLIPVMNKYVDGLDQGKGMYLLFIKPEISTPSGLMARPVLTSYYKSSNFRNRPFNPFNVYTSPDETILCLDSKQSMYCQLLCGLVQRDEVLRVGAVFASAFLRAIKFLEDHWRELCSNIRTGCVSDWITDPSCRNAVSSFLSKPQPDLADFIEFECNGESWEGIIKRLWPRTKYIEVIVTGSMAQYIPTLEFYSGGLPLVSTMYASSECYYGINLKPLSKPSDVSYTLLPNMAYFEFLPVQKNNGEVTQQVQCNGGCIKKEGERVEIEVVGLVDVKVGHYYELVVTTFTGLYRYRTGDILMVTGFYNNAPQFRFVQRRNVVLSIDTDKTNEEDLLKAVTQAKLLLEPYGFLLTEYTSYADTSSIPGHYVLFWELKTRGNNDLSEPDHTIMEQCCSTVEESLDSVYRRCRRRDNSIGPLEIRIVKPGTFDALMDFCVSQGSSVNQYKTPRCIKSKEAIKILDSRVVGKVFSKKVPFWEPFKMETK | 111.443 | 505.272 | 0.385 | 1.204 |  |  |
| OsGH3-6: GH3 protein, accession Q60EY1 (protein, listed as Oryza sativa) MAATAWGIRSSGIRGASPVMSACVSPAEVILGADHQQQMYCHLLCGLRRWDAVDCIRAPYAAALARALRLLQSKWRQLCDDLECGTVCADVVTDAAMRGAVQDGVLAGPCPELAGRVRRICERDDWRGVLRQLWPDARYISCVTTGTMEQYFPAIKHFAGEALPVLGTDYLASECAIGINLERTSPPEETTYVLLPRAAYFEFIPFDMDAAGRGAAAAEPVDIAGVEAGKTYELVATTFRGLYRYKVGDVVKIAGFHHSSPRLQFVTRAPPPQEHGEVLTERDVMAAMDTFQLMLKDGGEVIEFAAFIIDGDGGQRRRRCATIAVEVSNGSKLLDHERSAAFLRRCTAPLEGCLGGAYRLSRATGDVAPLEVAVVRPGTFDRLAEAAIRGGAPANQYKPPRSSGTGTSSMCCNPPWCAAAAQSLNQLLTSICLIVSLNQRQFLDRESNSGTDKVFISDSILNFQHWGGFSLRFDLQEESLTLYKDHPS | 0.000 | 0.000 | 0.000 | 0.000 |  |  |
| VvGH3-4: GH3 protein, accession XP_002263353 (protein, listed as Vitis vinifera) MEGKRLEYRGEEALKELEKFTAKADEVQENILKEIIARNCETEYLKKYMGGSKDVLEFKQSVPVITYKDIHPYIQRIANGEDSSLISGHPITEMLCSSGTSGGEPKMMPSIAEDLNRRTFLYNLIMPIMNQYIPGLDEGKAMFLYFVKAEMSTPCGLPARAVLTSYYKSKNFRCRVRDAFNDFTSPDQAILCTDSNQSMYCQLLAGLVHRHQVLRLGAVFASALLRAISFLERHWVHLCNDIRTGHLDSSITDPECRSSMSTILSSPNPHLADEIEEICSHPSWKGMLSQLWPRAKYIEAVITGSMAQYIPSLEYYSGGKLPLVCTMYASSECYFGVNMKPLCDPADVAFTLLPNMCYFEFIPLGENGTLLMDMDEEKGVPKEKLVDLVHVRLGCYYELVVTTFAGLNRYRIGDVLQVTGFHNRAPQFRFICRRNVVLSIDNDKTNEEDLHRSITMAKKLLEPYNALLVEYTSYADTSSLPGHYVLYWEITHCISTDSPSTPLDSKVLEECCIAVEEELDYIYRRCRTHDKSVGPLEIRLVQPGTFEDLMDLFISQGGSINQYKTPRCIKSSNALKLLNSNVEASFFSPRDPRWIP | 3.873 | 16.309 | 0.000 | 0.018 |  |  |
| RcGH3-17: GH3 protein, accession XP_002531876 (protein, listed as Ricinus communis) MDGKKLEYKGEAALEEIEKLTEKADEVQESILREILIQNGQTEYLSKYIKGSKDVKEFKYCVPVTTYKDMYPYIQRIANGEDSSLITGRPITEMLCSSGTSAGEPKLMPSINEDLDRRTFIYNLVMPIMNQYISGLDEGKAMYLYFVKEEMSTPCGLPARTVLTSYYKSKHFKCRARDSFNDFTSPDQAILCKDSDQSMYCQLLSGLVYRHQVLRIGAVFASALLRAISFLERNWVHLCNDIRNGELDPMITDPECRSCMSMILSSPNPSLADEIEEICSRPSWKGILCLLWPRTKYIEAVVTGSMAQYVPSLKYYSERKLPLVCTMYASSECYFGVNLKPLSDPAEVSFTLMPNMCYFEFIPLGENGTLLMDVDEEEKVPIHKLVDLVHVRRGCYYELVVTTFAGLYRYRIGDVLQVTGFHNQAPQFRFICRRNVVLSIDNDKTNEEDLHKSISTAKKLLEPYNAILVEYTSYAETLVVPGHYVLYWEILHHSSVVNHNQTPLDAEVFQECCIAVEEELDYIYRRCRTHDKSIGPLEIRVVEPGTFEALMDLFIGQGGSINQYKTPRCIKSNAALMLLNSHVKASFFSARDPVWIP | 4.366 | 10.433 | 0.000 | 0.027 |  |  |
| AtGH3-14: GH3 protein, accession CAB87143 (protein, listed as Arabidopsis thaliana) MLPKFDPTDQKACLSLLEDVTTNVKQIQDSVLEAILSRNAHTEYLSGFLNGQADKKSFKKNVPVVTYEDIKPYIDRIANGEPSDLICDRPISVLLTSSGTSGGVPKLIPLTTEELEQRISFASLYRPLLYKYIEGIRERKSFMLYFVTRESETASGILVRTMITCVLKSVTPANSFIWDQSQISPHAITTCSDTTQSMYCQLLCGLLQRDNVGRLGAPFASSFLKIIKFLEDHWPEFCSNIRTGCLSDWITDPQCVSGIGKFLTAPNPELASLIEQECSQTSWEAIVKRLWPKAKCIEAIVTGTMAQYNPLLEFYSGGLPVISTFYGSSECFFGLNLNPLSKPNEVSYTIIPCMAYFEFLEVEKDYESGHDPAENPVVVDLVDVKIGHDYEPVVTTFAGLYRYRLGDVLRVTGFYNNAPQFHFVGRQKVVLSIDMDKTYDEDLLKAVTNASLLLEPHDLMLMDFTSRVDSSSYPGHYVLYWELGRKVKDAKLELDQNVLEECCFTIEESLDAVYRKGRKNDKNIGPLEIKVVKPGAFDKLMNFFLSRGSSVSQYKTPRSVTNEEALKILEANVVSEFLSQKTPSWELHELHSSR | 0.000 | 0.000 | 0.122 | 0.233 | IAA-inactive | 2,4-D conjugases |
